Target: wheat thioredoxin h (WTRXh), 13.5-kDa protein encoded by the 384-bp wtrxh fragment (UniProt O64394)
Sequence (O64394 whole entry, the tested form may be a part): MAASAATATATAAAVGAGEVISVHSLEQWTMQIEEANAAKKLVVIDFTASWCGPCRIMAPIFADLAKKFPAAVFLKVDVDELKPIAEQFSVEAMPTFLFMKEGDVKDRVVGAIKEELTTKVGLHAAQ

Substance	reduction of DTNB [5,5'-dithiobis(2-nitrobenzoic acid)] via NTR and thioredoxin	Relative reduction of albumin-fraction proteins (mBBr fluorescence/protein), Homozygous/Null Segregant, +NADPH/NTR (fold (Homozygous/Null Segregant))
barley NTR (NADP-thioredoxin reductase)	confirmed the ability of barley NTR to reduce wheat thioredoxin h (data not shown)	–
Arabidopsis thaliana NTR (NADP-thioredoxin reductase)	–	3.91

Source: US20030135878
